{"source": "patent US20210008109A1", "about": "“METHODS OF TREATING HEMATOLOGICAL DISORDERS, SOLID TUMORS, OR INFECTIOUS DISEASES USING NATURAL KILLER CELLS” (CELGENE CORPORATION, priority 2014, published 2021)", "tested_on": "Daudi cells", "assay": "Antibody-dependent cellular cytotoxicity (ADCC) of PiNK cells with rituximab, PKH26/TO-PRO-3 FACS", "format": "cell-based", "settings": "Daudi cells pre-incubated 1 h with rituximab, compared to human IgG isotype control; E:T 50:1, 20:1, 10:1 and 2.5:1; 4 h at 37° C.", "protocol": "The experiments presented herein utilize an anti-CD20 antibody, rituximab, and Daudi cells (Cat #: CCL-213, ATCC), which are high expressers of CD20. Daudi cells were harvested and labeled with PKH26 (Cat #: PKH26GL-1KT, Sigma-Aldrich) (Ferlazzo, G., et al., J Immunol, 172: 1455-1462 (2004); Lehmann, D., et al., Stem Cells Dev, 21: 2926-2938 (2012)), whose lipophilic aliphatic residue inserts into cell plasma membrane. The cells were washed and incubated with rituximab (and human IgG as an isotype control) at different concentrations as indicated in FIG. 1 for 1 h at room temperature. After washing three times, 10^4 target cells were placed in 96-well U-bottom tissue culture plates and incubated with cultured NK cells at various effector-target (E:T) ratios (50:1, 20:1, 10:1 and 2.5:1) in 200 μl RPMI 1640 supplemented with 10% FBS. The Cultures were incubated for 4 h at 37° C. in 5% CO2. After incubation, cells were harvested and TO-PRO-3 (Catalog #T3605, Invitrogen), a membrane-impermeable DNA stain, was added to cultures to 0.25 μM final concentration followed by FACS analysis using BD FACSCanto II. Cytotoxicity (“% cytotoxicity” in FIG. 1) is expressed as percentage of dead cells (PKH26^+TO-PRO-3^+) within the total PKH26^+ target tumor cells, subtracted by spontaneous cell death.", "data": [{"substance": "rituximab", "values": [{"measurement": "% cytotoxicity of PiNK cells (dead PKH26+TO-PRO-3+ cells within total PKH26+ target cells, minus spontaneous cell death)", "value": "increases the cytotoxicity"}]}]}
